# B1: F-652: recombinant IL-22 dimer consisting of two monomeric subunits each comprising a sequence shown in SEQ ID NO: 24 (protein)
# chain 1: APISSHCRLDKSNFQQPYITNRTFMLAKEASLADNNTDVRLIGEKLFHGVSMSERCYLMKQVLNFTLEEVLFPQSDRFQPYMQEVVPFLARLSNRLSTCHIEGDDLHIQRNVQKLKDTVKKLGESGEIKAIGELDLLFMSLRNACIGSGGGSGGGGSGGGGSVECPPCPAPPVAGPSVFLFPPKPKDTLMISRTPEVTCVVVDVSHEDPEVQFNWYVDGVEVHNAKTKPREEQFNSTFRVVSVLTVVHQDWLNGKEYKCKVSNKGLPASIEKTISKTKGQPREPQVYTLPPSREEMTKNQVSLTCLVKGFYPSDIAVEWESNGQPENNYKTTPPMLDSDGSFFLYSKLTVDKSRWQQGNVFSCSVMHEALHNHYTQKSLSLSPGK
# chain 2: B1 chain 1
# modifications: homodimer
# Test system: H1N1 influenza (A/PR8 strain)
# Type: in vivo, C57BL/6 mice
molecule,measurement,setting,value
B1,decreased small airway resistance at baseline (pattern differences),6-week treatment groups,not seen
same,input impedance (Re Zrs): baseline resistance in small airways,"aged mice, not young mice, prior to airway recruitment maneuver",significantly improves baseline resistance
